These results are taken from patent US20240209076A1 (KODIAK SCIENCES, published 2024).

Changes are numbered by the printed parent chain. Names may count otherwise.

The labels stand for the following.
B1: anti-IL-6 antibody, heavy chain I51H, G66D / light chain M32L, M50D, N52S, M88Q (antibody, human IgG1, V domains shown)
VH: EVQLVESGGGLVQPGGSLRLSCAASGFTFSPFAMSWVRQAPGKGLEWVAKHSPGGSWTYYSDTVTDRFTFSLDTSKSTAYLQMNSLRAEDTAVYYCARQLWGYYALDIWGQGTLVTVSS
VL: DIQLTQSPSSLSASVGDRVTITCSASISVSYLYWYQQKPGKAPKLLIYDDSSLASGVPSRFSGSGSGTDFTLTISSLQPEDFATYYCQQWSGYPYTFGQGTKVEIK
notes: Human IgG1
B2: anti-IL-6 antibody, heavy chain I51W, G66D / light chain M32L, M50D, N52S, M88Q (antibody, human IgG1, V domains shown)
VH: B1 VH with H51W
VL: B1 VL
notes: Human IgG1
B3: anti-IL-6 antibody, heavy chain S35A, G66D / light chain M32L, M50D, N52S, M88Q (antibody, human IgG1, V domains shown)
VH: B1 VH with S35A, H51I
VL: B1 VL
notes: Human IgG1
B4: anti-IL-6 antibody, heavy chain I51E, G66D / light chain M32L, M50D, N52S, M88Q (antibody, human IgG1, V domains shown)
VH: B1 VH with H51E
VL: B1 VL
notes: Human IgG1
B5: anti-IL-6 antibody, heavy chain I51G, G66D / light chain M32L, M50D, N52S, M88Q (antibody, human IgG1, V domains shown)
VH: B1 VH with H51G
VL: B1 VL
notes: Human IgG1
B6: anti-IL-6 antibody, heavy chain I51R, G66D / light chain M32L, M50D, N52S, M88Q (antibody, human IgG1, V domains shown)
VH: B1 VH with H51R
VL: B1 VL
notes: Human IgG1
B7: anti-IL-6 antibody, heavy chain I51S, G66D / light chain M32L, M50D, N52S, M88Q (antibody, human IgG1, V domains shown)
VH: B1 VH with H51S
VL: B1 VL
notes: Human IgG1
B8: anti-IL-6 antibody, heavy chain I51F, G66D / light chain M32L, M50D, N52S, M88Q (antibody, human IgG1, V domains shown)
VH: B1 VH with H51F
VL: B1 VL
notes: Human IgG1
B9: anti-IL-6 antibody, heavy chain S35D, G66D / light chain M32L, M50D, N52S, M88Q (antibody, human IgG1, V domains shown)
VH: B1 VH with S35D, H51I
VL: B1 VL
notes: Human IgG1
B10: anti-IL-6 antibody, heavy chain I51D, G66D / light chain M32L, M50D, N52S, M88Q (antibody, human IgG1, V domains shown)
VH: B1 VH with H51D
VL: B1 VL
notes: Human IgG1
B11: anti-IL-6 antibody, heavy chain I51T, G66D / light chain M32L, M50D, N52S, M88Q (antibody, human IgG1, V domains shown)
VH: B1 VH with H51T
VL: B1 VL
notes: Human IgG1
B12: anti-IL-6 antibody, heavy chain I51L, G66D / light chain M32L, M50D, N52S, M88Q (antibody, human IgG1, V domains shown)
VH: B1 VH with H51L
VL: B1 VL
notes: Human IgG1
B13: anti-IL-6 antibody, heavy chain S35E, G66D / light chain M32L, M50D, N52S, M88Q (antibody, human IgG1, V domains shown)
VH: B1 VH with S35E, H51I
VL: B1 VL
notes: Human IgG1
B14: anti-IL-6 antibody, heavy chain I51A, G66D / light chain M32L, M50D, N52S, M88Q (antibody, human IgG1, V domains shown)
VH: B1 VH with H51A
VL: B1 VL
notes: Human IgG1
B15: anti-IL-6 antibody, heavy chain I51V, G66D / light chain M32L, M50D, N52S, M88Q (antibody, human IgG1, V domains shown)
VH: B1 VH with H51V
VL: B1 VL
notes: Human IgG1
B16: anti-IL-6 antibody, heavy chain I51Q, G66D / light chain M32L, M50D, N52S, M88Q (antibody, human IgG1, V domains shown)
VH: B1 VH with H51Q
VL: B1 VL
notes: Human IgG1
B17: anti-IL-6 antibody, heavy chain I51K, G66D / light chain M32L, M50D, N52S, M88Q (antibody, human IgG1, V domains shown)
VH: B1 VH with H51K
VL: B1 VL
notes: Human IgG1
B18: anti-IL-6 antibody, heavy chain I51Y, G66D / light chain M32L, M50D, N52S, M88Q (antibody, human IgG1, V domains shown)
VH: B1 VH with H51Y
VL: B1 VL
notes: Human IgG1
B19: anti-IL-6 antibody, heavy chain T65A, G66D / light chain M32L, M50D, N52S, M88Q (antibody, IgG1, V domains shown)
VH: B1 VH with H51I, T65A
VL: B1 VL
notes: Full IgG1 (Expi293); VL = variant III
B20: anti-IL-6 antibody, heavy chain T65E, G66D / light chain M32L, M50D, N52S, M88Q (antibody, IgG1, V domains shown)
VH: B1 VH with H51I, T65E
VL: B1 VL
notes: as for B19
B21: anti-IL-6 antibody, heavy chain T65P, G66D / light chain M32L, M50D, N52S, M88Q (antibody, IgG1, V domains shown)
VH: B1 VH with H51I, T65P
VL: B1 VL
notes: as for B19
B22: anti-IL-6 antibody, heavy chain T65L, G66D / light chain M32L, M50D, N52S, M88Q (antibody, IgG1, V domains shown)
VH: B1 VH with H51I, T65L
VL: B1 VL
notes: as for B19
B23: anti-IL-6 antibody, heavy chain T65V, G66D / light chain M32L, M50D, N52S, M88Q (antibody, IgG1, V domains shown)
VH: B1 VH with H51I, T65V
VL: B1 VL
notes: as for B19
B24: anti-IL-6 antibody, heavy chain T65Y, G66D / light chain M32L, M50D, N52S, M88Q (antibody, IgG1, V domains shown)
VH: B1 VH with H51I, T65Y
VL: B1 VL
notes: as for B19
B25: anti-IL-6 antibody, heavy chain T65D, G66D / light chain M32L, M50D, N52S, M88Q (antibody, IgG1, V domains shown)
VH: B1 VH with H51I, T65D
VL: B1 VL
notes: as for B19
B26: anti-IL-6 antibody, heavy chain T65H, G66D / light chain M32L, M50D, N52S, M88Q (antibody, IgG1, V domains shown)
VH: B1 VH with H51I, T65H
VL: B1 VL
notes: as for B19
B27: anti-IL-6 antibody, heavy chain T65S, G66D / light chain M32L, M50D, N52S, M88Q (antibody, IgG1, V domains shown)
VH: B1 VH with H51I, T65S
VL: B1 VL
notes: as for B19
B28: anti-IL-6 antibody, heavy chain T65W, G66D / light chain M32L, M50D, N52S, M88Q (antibody, IgG1, V domains shown)
VH: B1 VH with H51I, T65W
VL: B1 VL
notes: as for B19
B29: anti-IL-6 antibody, heavy chain T65K, G66D / light chain M32L, M50D, N52S, M88Q (antibody, IgG1, V domains shown)
VH: B1 VH with H51I, T65K
VL: B1 VL
notes: as for B19
B30: anti-IL-6 antibody, heavy chain T65R, G66D / light chain M32L, M50D, N52S, M88Q (antibody, IgG1, V domains shown)
VH: B1 VH with H51I, T65R
VL: B1 VL
notes: as for B19
B31: anti-IL-6 antibody, heavy chain T65G, G66D / light chain M32L, M50D, N52S, M88Q (antibody, IgG1, V domains shown)
VH: B1 VH with H51I, T65G
VL: B1 VL
notes: as for B19
B32: anti-IL-6 antibody, heavy chain T65F, G66D / light chain M32L, M50D, N52S, M88Q (antibody, IgG1, V domains shown)
VH: B1 VH with H51I, T65F
VL: B1 VL
notes: as for B19

The target of one assay is human IL-6 (human, UniProt P05231 30-212). Nature of the assay: SPR (Biacore), supernatant antibody on Protein A chip, IL-6 flowed, 37 C. The procedure: (§1) Antibodies were captured on a Protein A chip (GE) by injecting 1:20 cell supernatant dilutions at 10 μL/min for 60 seconds. […] The sensor chip was regenerated by a 60 seconds injection of 10 mM Glycine pH 1.7 at the flow rate of 50 μL/min. […] For this setup, 1 μg/mL of purified antibody was injected over a Protein A chip at 10 μL/min for 25 seconds. […] The sensor chip was regenerated by a 60 seconds injection of 10 mM Glycine pH 1.7 at flow rate of 50 μL/min. Data analysis for supernatant and purified samples were performed using BIAevaluation software (GE). All sensorgrams were double reference subtracted and fit using a 1:1 Langmuir binding model.
Target sequence in this assay (P05231 30-212 limits assumed): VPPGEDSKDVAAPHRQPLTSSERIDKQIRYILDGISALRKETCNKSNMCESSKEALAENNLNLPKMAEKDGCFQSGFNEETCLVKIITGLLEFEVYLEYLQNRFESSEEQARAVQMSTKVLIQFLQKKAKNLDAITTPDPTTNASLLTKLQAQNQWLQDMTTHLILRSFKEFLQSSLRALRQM
Take B1: the dissociation constant (Kd) was 0.5 nM, the koff amounted to 0.00104 s⁻¹ and the kon was determined as 2.07e+06 M⁻¹ s⁻¹.
In turn, B2 returned a Kd of 4.84 nM, a koff of 0.00383 s⁻¹ and an on-rate (kon) of 791000 M⁻¹ s⁻¹.
In the same order, the values of B3 are 0.657 nM, 0.00126 s⁻¹ and 1.93e+06 M⁻¹ s⁻¹.
B4 yielded a Kd of 2.14 nM, a koff of 0.00196 s⁻¹ and a kon of 914000 M⁻¹ s⁻¹.
In the case of B5, the Kd is 0.652 nM, the koff turned out to be 0.000912 s⁻¹ and the kon came to 1.4e+06 M⁻¹ s⁻¹.
In the same order, the values of B6 are 0.0357 nM, 5.8e-05 s⁻¹ and 1.63e+06 M⁻¹ s⁻¹.
In turn, B7 returned a Kd of 0.217 nM, a koff of 0.000401 s⁻¹ and a kon of 1.85e+06 M⁻¹ s⁻¹.
In the same order, the values of B8 are 4.45 nM, 0.00611 s⁻¹ and 1.37e+06 M⁻¹ s⁻¹.
In the case of B9, the Kd was determined as 0.753 nM, the koff turned out to be 0.00177 s⁻¹ and the kon came out at 2.35e+06 M⁻¹ s⁻¹.
Turning to B10, the dissociation constant Kd was 9.58 nM, the koff was found to be 0.00799 s⁻¹ and the kon amounted to 834000 M⁻¹ s⁻¹.
For the molecule B11, binding was put at a Kd of 0.233 nM, the off-rate constant (koff) came out at 0.000478 s⁻¹ and the kon is 2.05e+06 M⁻¹ s⁻¹.
For B12, binding was put at a Kd of 0.98 nM, the koff stood at 0.00161 s⁻¹ and the kon was 1.64e+06 M⁻¹ s⁻¹.
For B13, binding was put at a Kd of 0.867 nM, the koff stood at 0.00189 s⁻¹ and the kon was found to be 2.18e+06 M⁻¹ s⁻¹.
In the same order, the values of B14 are 0.559 nM, 0.000899 s⁻¹ and 1.61e+06 M⁻¹ s⁻¹.
In the same order, the values of B15 are 1.11 nM, 0.00195 s⁻¹ and 1.76e+06 M⁻¹ s⁻¹.
In the same order, the values of B16 are 0.575 nM, 0.00113 s⁻¹ and 1.96e+06 M⁻¹ s⁻¹.
With B17, the Kd amounted to 0.349 nM, the off-rate (koff) is 0.000601 s⁻¹ and the kon turned out to be 1.72e+06 M⁻¹ s⁻¹.
In the same order, the values of B18 are 4.04 nM, 0.0247 s⁻¹ and 6.1e+06 M⁻¹ s⁻¹.

The target of another assay is T1, human IL-6 (human, UniProt P05231 30-212).
T1 construct: IL-6 flowed over captured antibodies
Nature of the assay: SPR Biacore, supernatant Ab on Protein A chip, 37 C. The procedure: as §1
T1 sequence (P05231 30-212 limits assumed): as above
Consider B19, for which the Kd came to 0.239 nM, the koff was 0.000542 s⁻¹ and the kon amounted to 2.27e+06 M⁻¹ s⁻¹.
In the same order, the values of B20 are 0.279 nM, 0.000474 s⁻¹ and 1.7e+06 M⁻¹ s⁻¹.
In the same order, the values of B21 are 0.601 nM, 0.00108 s⁻¹ and 1.79e+06 M⁻¹ s⁻¹.
In the same order, the values of B22 are 0.293 nM, 0.000446 s⁻¹ and 1.53e+06 M⁻¹ s⁻¹.
Molecule B23 yielded a Kd of 0.281 nM, an off-rate constant (koff) of 0.000551 s⁻¹ and a kon of 1.96e+06 M⁻¹ s⁻¹.
In the same order, the values of B24 are 0.237 nM, 0.000367 s⁻¹ and 1.55e+06 M⁻¹ s⁻¹.
In the same order, the values of B25 are 0.465 nM, 0.00048 s⁻¹ and 1.03e+06 M⁻¹ s⁻¹.
In the same order, the values of B26 are 0.297 nM, 0.000423 s⁻¹ and 1.43e+06 M⁻¹ s⁻¹.
B27: the dissociation constant Kd came out at 0.31 nM, the koff was 0.000441 s⁻¹ and the kon was found to be 1.42e+06 M⁻¹ s⁻¹.
On to B28, for which the Kd was 0.322 nM, the koff stood at 0.000384 s⁻¹ and the on-rate (kon) amounted to 1.19e+06 M⁻¹ s⁻¹.
Take B29: the Kd amounted to 0.356 nM, the dissociation rate constant (koff) was 0.000579 s⁻¹ and the kon was 1.63e+06 M⁻¹ s⁻¹.
In the case of B30, binding was put at a Kd of 0.327 nM, the koff amounted to 0.000532 s⁻¹ and the kon turned out to be 1.63e+06 M⁻¹ s⁻¹.
In the same order, the values of B31 are 0.311 nM, 0.000477 s⁻¹ and 1.53e+06 M⁻¹ s⁻¹.
In the same order, the values of B32 are 0.291 nM, 0.000391 s⁻¹ and 1.34e+06 M⁻¹ s⁻¹.
